From publication PMC12482432

Assays:
[1] = tested on: T1, EefR (Escherichia coli ATCC 35218 (35218m, acrB-deficient)), ORF:f1625a7f; experiment: competition; conditions: EMSA in binding buffer (Beyotime kit, composition not given), 25 °C, 20 min; 6% native PAGE at 4 °C; salt and pH not stated
T1 sequence: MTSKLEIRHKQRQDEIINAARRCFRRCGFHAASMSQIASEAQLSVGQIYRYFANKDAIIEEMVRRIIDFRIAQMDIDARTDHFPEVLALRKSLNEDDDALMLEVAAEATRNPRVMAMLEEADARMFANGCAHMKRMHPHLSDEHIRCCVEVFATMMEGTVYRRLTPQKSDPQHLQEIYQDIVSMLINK

[2] = tested on: T1, EefR (Escherichia coli ATCC 35218 (35218m, acrB-deficient)), ORF:f1625a7f; experiment: EMSA; conditions: EMSA in binding buffer (Beyotime kit, composition not given), 25 °C, 20 min; 6% native PAGE at 4 °C; salt and pH not stated

| Sequence | binding [1] | binding [2] |
| --- | --- | --- |
| ACAGAATTAACCAATAGCGGGGGATATTAATCCCCCTTATTTCATTGCGAAATTCATTTCGCGATGCGGGTTCGTTATAACTGAATATCCCTGACATATCCTCATTAATTTTAATGAGGAGGGTATTTCTCACCCTGGAGAAAATA (double strand) [nonspecific probe (148 bp)] | no binding | – |
| CACAATCTCTTCATTATCAGAATATGCACCATGAATAAGATAAAAATACTTTCCATTACTTTGGAGAAACGTATAATCAGCAAAAATGAGAACGATCATCCTCACCAAGTGATAGGCCAGGAGACAGAA (double strand) [M1 (one base mutated, MT-1)] | – | no binding |
| CACAATCTCTTCATTATCAGAATATGCACCATGAATAAGATAAAAATACTTTCCATTACTTTGGAGAAACGTATAATCAGCAAAAATGAGAACGATCATTCTCACCAAGTGATAGGCCAGGAGACAGAA (double strand) [P1 (129 bp eefR upstream probe)] | – | binds |
| CACAATCTCTTCATTATCAGAATATGCACCATGAATAAGATAAAAATACTTTCCATTACTTTGGAGAAACGTATAATCAGCAAAAATGAGAACGATCATTCTCACCAAGTGATAGGCCAGGAGACAGAA (double strand) [P1 cold probe] | binds | – |
